What all share (assay): EMSA
In general terms: In EMSA bound probe runs differently from free probe, usually more slowly.

Series [1] has as its target T1, trFANCM-deltaHel2i (UniProt Q8IYD8 82-647, del298-443).
T1 sequence: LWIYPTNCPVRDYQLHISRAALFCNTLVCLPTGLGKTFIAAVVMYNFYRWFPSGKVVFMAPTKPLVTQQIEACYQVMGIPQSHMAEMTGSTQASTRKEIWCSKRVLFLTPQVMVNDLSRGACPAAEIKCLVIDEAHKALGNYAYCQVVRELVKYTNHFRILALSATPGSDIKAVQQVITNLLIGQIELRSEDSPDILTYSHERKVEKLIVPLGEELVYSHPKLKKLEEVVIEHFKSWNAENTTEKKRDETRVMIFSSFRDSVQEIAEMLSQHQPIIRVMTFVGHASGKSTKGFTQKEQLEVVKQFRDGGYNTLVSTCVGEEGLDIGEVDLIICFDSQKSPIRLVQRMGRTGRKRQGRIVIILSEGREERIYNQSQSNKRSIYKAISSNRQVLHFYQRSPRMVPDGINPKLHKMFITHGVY

In series [2] the target is FANCMc (full-length FANCM complex) (UniProt Q8IYD8;Q8N2Z9;A8MT69;Q9BTP7 1-2048;1-138;1-81;1-215).
In series [3] the target is T2, trFANCM (translocase domain) (UniProt Q8IYD8 82-647).
T2 sequence: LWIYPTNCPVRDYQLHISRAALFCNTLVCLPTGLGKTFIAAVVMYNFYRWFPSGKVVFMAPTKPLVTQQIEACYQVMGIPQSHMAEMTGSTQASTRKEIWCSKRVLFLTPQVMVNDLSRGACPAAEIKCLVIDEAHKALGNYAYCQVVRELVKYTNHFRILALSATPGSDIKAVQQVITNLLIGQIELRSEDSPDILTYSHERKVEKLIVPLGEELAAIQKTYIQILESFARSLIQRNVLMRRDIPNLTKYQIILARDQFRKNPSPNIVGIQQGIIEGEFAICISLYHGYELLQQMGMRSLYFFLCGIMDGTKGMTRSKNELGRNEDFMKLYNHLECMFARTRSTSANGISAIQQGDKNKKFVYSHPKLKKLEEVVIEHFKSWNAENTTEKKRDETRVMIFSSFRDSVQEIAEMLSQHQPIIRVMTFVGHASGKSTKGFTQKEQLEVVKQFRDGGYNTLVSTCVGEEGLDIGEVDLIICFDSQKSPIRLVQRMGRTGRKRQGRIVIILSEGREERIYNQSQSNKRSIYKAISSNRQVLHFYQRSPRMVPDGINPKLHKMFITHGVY

The target in series [4] is FANCMc-deltaHel2i (UniProt Q8IYD8;Q8N2Z9;A8MT69;Q9BTP7 1-297+444-2048;1-138;1-81;1-215, internal_change).

B1: 30 bp static (non-migratable) Holliday junction, X0s1-4, IRDye700 (structured_DNA)
DNA 1: TACCAGTGCCTTGCTAGGACATCTTTGCCCAC
DNA 2: GTGGGCAAAGATGTCCATCTGTTGTAATCGTC
DNA 3: GACGATTACAACAGATCATGGAGCTGTCTAGA
DNA 4: TCTAGACAGCTCCATGTAGCAAGGCACTGGTA
As to B1, in series [1], the binding signal is > 60 fold reduction vs trFANCM. In addition, the binding result in series [2], in series [3] and in series [4] was “binds” in each case.
